Measured values from US20110091994A1, “Methods for Screening Compounds for Treating and/or Preventing an Hepatitis C Virus Infection” (priority 2008, published 2011).
Where two headings read alike, the source gives them in different places.

Key:
HCV proteins = target: T1, HCV proteins (Hepatitis C virus genotype 1b, UniProt Q9WMX2); assay: Validation by Y2H pairwise matrices; format: binding;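 further: yeast two-hybrid pairwise tests of interactions first found in Y2H screens of HCV bait proteins against human cDNA libraries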
T1 construct: expressed in transfected cells

[1] = target: T2, HCV ORFs (Gal4-DB fusions) (Hepatitis C virus genotype 1b, UniProt Q9WMX2); format: binding, HCV genotype 1b, isolate con1; conditions: human protein as prey
T2 construct: expressed in transfected cells; host or cells: Saccharomyces cerevisiae MAV203 (IMAP1) / AH109 (IMAP2)

[2] = test system: HCV ORFs (Gal4-DB fusions); format: binding, HCV genotype 1b, isolate con1; conditions: human protein listed by gene symbol; the value names the HCV protein it interacts with
[3] = validation of interaction with HCV protein NS3
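Wherever IMAP Y2H IMAP1 (number of IST) is given: yeast two-hybrid screens using HCV genotype 1b proteins fused to Gal4-DB as baits against prey cDNA libraries from human spleen and foetal brain, IMAP1 via transformation and IMAP2 via mating.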
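Wherever IMAP Y2H IMAP2 (number of IST) is given: yeast two-hybrid screens using HCV genotype 1b proteins fused to Gal4-DB as baits against prey cDNA libraries from human spleen and foetal brain, IMAP1 via transformation and IMAP2 via mating.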
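Wherever Interaction with viral protein is given: yeast two-hybrid screens using HCV genotype 1b proteins fused to Gal4-DB as baits against prey cDNA libraries from human spleen and foetal brain, IMAP1 via transformation and IMAP2 via mating.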

| Molecule | Y2H matrices (HCV proteins; [3]) | IMAP Y2H IMAP1 (number of IST) ([1]; HCV protein NS3 as bait) | Interaction with viral protein [2] | IMAP Y2H IMAP2 (number of IST) ([1]; HCV protein NS3 as bait) | Y2H matrices (HCV proteins; interaction with HCV protein p7) | IMAP Y2H IMAP1 (number of IST) ([1]; HCV protein p7 as bait) |
| --- | --- | --- | --- | --- | --- | --- |
| CHPF (protein, UniProt Q8IZ52 1-775, looked up) Chondroitin sulfate synthase 2: MRASLLLSVLRPAGPVAVGISLGFTLSLLSVTWVEEPCGPGPPQPGDSELPPRGNTNAARRPNSVQPGAEREKPGAGEGAGENWEPRVLPYHPAQPGQAAKKAVRTRYISTELGIRQRLLVAVLTSQTTLPTLGVAVNRTLGHRLERVVFLTGARGRRAPPGMAVVTLGEERPIGHLHLALRHLLEQHGDDFDWFFLVPDTTYTEAHGLARLTGHLSLASAAHLYLGRPQDFIGGEPTPGRYCHGGFGVLLSRMLLQQLRPHLEGCRNDIVSARPDEWLGRCILDATGVGCTGDHEGVHYSHLELSPGEPVQEGDPHFRSALTAHPVRDPVHMYQLHKAFARAELERTYQEIQELQWEIQNTSHLAVDGDQAAAWPVGIPAPSRPASRFEVLRWDYFTEQHAFSCADGSPRCPLRGADRADVADVLGTALEELNRRYHPALRLQKQQLVNGYRRFDPARGMEYTLDLQLEALTPQGGRRPLTRRVQLLRPLSRVEILPVPYVTEASRLTVLLPLAAAERDLAPGFLEAFATAALEPGDAAAALTLLLLYEPRQAQRVAHADVFAPVKAHVAELERRFPGARVPWLSVQTAAPSPLRLMDLLSKKHPLDTLFLLAGPDTVLTPDFLNRCRMHAISGWQAFFPMHFQAFHPAVAPPQGPGPPELGRDTGRFDRQAASEACFYNSDYVAARGRLAAASEQEEELLESLDVYELFLHFSSLHVLRAVEPALLQRYRAQTCSARLSEDLYHRCLQSVLEGLGSRTQLAMLLFEQEQGNST | + | 1 | NS3 | – | – | – |
| CCDC66 (protein, UniProt A2RUB6 1-948, looked up) Coiled-coil domain-containing …: MNLGDGLKLETELLDGKTKLILSPYEHKSKISVKMGNKAKIAKCPLRTKTGHILKSTQDTCIGSEKLLQKKPVGSETSQAKGEKNGMTFSSTKDLCKQCIDKDCLHIQKEISPATPNMQKTRNTVNTSLVGKQKPHKKHITAENMKSSLVCLTQDQLQQILMTVNQGNRSLSLTENGKEAKSQYSLYLNSISNQPKDENIMGLFKKTEMVSSVPAENKSVLNEHQETSKQCEQKIAIENEWKPADIFSTLGERECDRSSLEAKKAQWRKELDEQVALKKKEKEVSEKWNDPWKKSESDKIIWEKHQILDQSRETVLLEHPFSAVKQELQRKWIEELNKQIEDDRQRKIEEKIIYSKGEEHDRWAMHFDSLKSYPGSQSQLFSQSTHKQPEYFCVSPDTQELADVSSVCTPTTGSQVEPSEEEHIAKPIKDVVMANSKKTNFLRSMTALLDPAQIEERDRRRQKQLEHQKAITAQVEEKRRKKQLEEEQRKKEEQEEELRLAQEREEMQKQYEEDILKQKQKEEIMTLKTNELFQTMQRAQELAQRLKQEQRIRELAQKGHDTSRLIKNLGVDTIQMEYNASNISNSRHDSDEISGKMNTYMNSTTSKKDTGVQTDDLNIGIFTNAESHCGSLMERDITNCSSPEISAELIGQFSTKKNKQELTQDKGASLEKENNRCNDQCNQFTRIEKQTKHMKKYPKRPDWNINKPPKRYIPASEKYPKQLQKQREEKKVRRQMELLHLVEKNNPGHLSQNRGISPEIFHSSHQETESKLRWHLVKKEEEPLNIHSFSKERSPSSPVPVVKNRTQQTQNTLHLPLKNSSYERENLISGSNQTELSSGISESSHFIPYVRTNEIYYLDPDAPLSGPSTQDPQYQNSQDCGQKRQLFDSDCVRDPLLNPNMVKNRDRQQAILKGLSELRQGLLQKQKELESSLLPLAENQEESFGSSF | + | 1 | NS3 | 4 | – | – |
| CBY1 (protein, UniProt Q9Y3M2 1-126, looked up) Protein chibby homolog 1: MPFFGNTFSPKKTPPRKSASLSNLHSLDRSTREVELGLEYGSPTMNLAGQSLKFENGQWIAETGVSGGVDRREVQRLRRRNQQLEEENNLLRLKVDILLDMLSESTAESHLMEKELDELRISRKRK | + | 2 | NS3 | – | – | – |
| CD5L (protein, UniProt O43866 20-347, looked up) CD5 antigen-like: SPSGVRLVGGLHRCEGRVEVEQKGQWGTVCDDGWDIKDVAVLCRELGCGAASGTPSGILYEPPAEKEQKVLIQSVSCTGTEDTLAQCEQEEVYDCSHDEDAGASCENPESSFSPVPEGVRLADGPGHCKGRVEVKHQNQWYTVCQTGWSLRAAKVVCRQLGCGRAVLTQKRCNKHAYGRKPIWLSQMSCSGREATLQDCPSGPWGKNTCNHDEDTWVECEDPFDLRLVGGDNLCSGRLEVLHKGVWGSVCDDNWGEKEDQVVCKQLGCGKSLSPSFRDRKCYGPGVGRIWLDNVRCSGEEQSLEQCQHRFWGFHDCTHQEDVAVICSG | + | 1 | NS3 | 1 | – | – |
| LMNB1 (protein, UniProt P20700 2-583, looked up) Lamin-B1: ATATPVPPRMGSRAGGPTTPLSPTRLSRLQEKEELRELNDRLAVYIDKVRSLETENSALQLQVTEREEVRGRELTGLKALYETELADARRALDDTARERAKLQIELGKCKAEHDQLLLNYAKKESDLNGAQIKLREYEAALNSKDAALATALGDKKSLEGDLEDLKDQIAQLEASLAAAKKQLADETLLKVDLENRCQSLTEDLEFRKSMYEEEINETRRKHETRLVEVDSGRQIEYEYKLAQALHEMREQHDAQVRLYKEELEQTYHAKLENARLSSEMNTSTVNSAREELMESRMRIESLSSQLSNLQKESRACLERIQELEDLLAKEKDNSRRMLTDKEREMAEIRDQMQQQLNDYEQLLDVKLALDMEISAYRKLLEGEEERLKLSPSPSSRVTVSRASSSRSVRTTRGKRKRVDVEESEASSSVSISHSASATGNVCIEEIDVDGKFIRLKNTSEQDQPMGGWEMIRKIGDTSVSYKYTSRYVLKAGQTVTIWAANAGVTASPPTDLIWKNQNSWGTGEDVKVILKNSQGEEVAQRSTVFKTTIPEEEEEEEEAAGVVVEEELFHQQGTPRASNRSC | – | – | – | – | + | 1 |
| CORO1B (protein, UniProt Q9BR76 1-489, looked up) Coronin-1B: MSFRKVVRQSKFRHVFGQPVKNDQCYEDIRVSRVTWDSTFCAVNPKFLAVIVEASGGGAFLVLPLSKTGRIDKAYPTVCGHTGPVLDIDWCPHNDEVIASGSEDCTVMVWQIPENGLTSPLTEPVVVLEGHTKRVGIIAWHPTARNVLLSAGCDNVVLIWNVGTAEELYRLDSLHPDLIYNVSWNHNGSLFCSACKDKSVRIIDPRRGTLVAEREKAHEGARPMRAIFLADGKVFTTGFSRMSERQLALWDPENLEEPMALQELDSSNGALLPFYDPDTSVVYVCGKGDSSIRYFEITEEPPYIHFLNTFTSKEPQRGMGSMPKRGLEVSKCEIARFYKLHERKCEPIVMTVPRKSDLFQDDLYPDTAGPEAALEAEEWVSGRDADPILISLREAYVPSKQRDLKISRRNVLSDSRPAMAPGSSHLGAPASTTTAADATPSGSLARAGEAGKLEEVMQELRALRALVKEQGDRICRLEEQLGRMENGDA | + | 8 | NS3 | – | – | – |
| CTGF (protein, UniProt P29279 27-349, looked up) CCN family member 2: QNCSGPCRCPDEPAPRCPAGVSLVLDGCGCCRVCAKQLGELCTERDPCDPHKGLFCHFGSPANRKIGVCTAKDGAPCIFGGTVYRSGESFQSSCKYQCTCLDGAVGCMPLCSMDVRLPSPDCPFPRRVKLPGKCCEEWVCDEPKDQTVVGPALAAYRLEDTFGPDPTMIRANCLVQTTEWSACSKTCGMGISTRVTNDNASCRLEKQSRLCMVRPCEADLEENIKKGKKCIRTPKISKPIKFELSGCTSMKTYRAKFCGVCTDGRCCTPHRTTTLPVEFKCPDGEVMKKNMMFIKTCACHYNCPGDNDIFESLYYRKMYGDMA | + | 1 | NS3 | – | – | – |
| CCHCR1 (protein, UniProt Q8TD31 1-782, looked up) Coiled-coil alpha-helical rod …: MFPPSGSTGLIPPSHFQARPLSTLPRMAPTWLSDIPLVQPPGHQDVSERRLDTQRPQVTMWERDVSSDRQEPGRRGRSWGLEGSQALSQQAEVIVRQLQELRRLEEEVRLLRETSLQQKMRLEAQAMELEALARAEKAGRAEAEGLRAALAGAEVVRKNLEEGSQRELEEVQRLHQEQLSSLTQAHEEALSSLTSKAEGLEKSLSSLETRRAGEAKELAEAQREAELLRKQLSKTQEDLEAQVTLVENLRKYVGEQVPSEVHSQTWELERQKLLETMQHLQEDRDSLHATAELLQVRVQSLTHILALQEEELTRKVQPSDSLEPEFTRKCQSLLNRWREKVFALMVQLKAQELEHSDSVKQLKGQVASLQEKVTSQSQEQAILQRSLQDKAAEVEVERMGAKGLQLELSRAQEARRRWQQQTASAEEQLRLVVNAVSSSQIWLETTMAKVEGAAAQLPSLNNRLSYAVRKVHTIRGLIARKLALAQLRQESCPLPPPVTDVSLELQQLREERNRLDAELQLSARLIQQEVGRAREQGEAERQQLSKVAQQLEQELQQTQESLASLGLQLEVARQGQQESTEEAASLRQELTQQQELYGQALQEKVAEVETRLREQLSDTERRLNEARREHAKAVVSLRQIQRRAAQEKERSQELRRLQEEARKEEGQRLARRLQELERDKNLMLATLQQEGLLSRYKQQRLLTVLPSLLDKKKSVVSSPRPPECSASAPVAAAVPTRESIKGSLSVLLDDLQDLSEAISKEEAVCQGDNLDRCSSSNPQMSS | + | 1 | NS3 | 2 | – | – |
| CCDC52 (protein, UniProt Q8N0Z3 1-855, looked up) Spindle and …: MSFVRVNRCGPRVGVRKTPKVKKKKTSVKQEWDNTVTDLTVHRATPEDLVRRHEIHKSKNRALVHWELQEKALKRKWRKQKPETLNLEKRRLSIMKEILSDQYQMQDVLEKSDHLIAAAKELFPRRRTGFPNVTVAPDSSQGPIVVNQDPITQSIFNESVIEPQALNDVDGEEEGTVNSQSGESENENELDNSLNSQSNTNTDRFLQQLTEENFELISKLWTDIQQKIATQSQITPPGTPSSALSSGEQRAALNATNAVKRLQTRLQPEESTETLDSSYVVGHVLNSRKQKQLLNKVKRKPNLHALSKPKKNISSGSTTSADLPNRTNSNLDVLKHMIHEVEHEMEEYERWTGREVKGLQSSQGLTGFTLSLVSSLCRLVRYLKESEIQLRKEVETRQQLEQVLGDHRELIDALTAEILRLREENAATQARLQQYMVTTDEQLISLTHAIKNCPVINNRQEIQASESGATGRRVMDSPERPVVNANVSVPLMFREEVAEFPQEELPVKLSQVPDPPDNMNLAKNFPAHIFEPAVLLTPPRQKSNLKFSPLQDVLRRTVQTRPAPRLPPTVEIIEKEQNWEEKTLPIDTDIQNSSEENRLFTQRWRVSHMGEDLENKTQAPFVNLSQPLCNSHSNTQQSRSPTFSEELPVLGDGQQLRTNESLIQRKDIMTRIADLTLQNSAIKAHMNNIIEPRGEQGDGLRELNKQESASDMTSTFPVAQSLTPGSMEERIAELNRQSMEARGKLLQLIEQQKLVGLNLSPPMSPVQLPLRAWTEGAKRTIEVSIPGAEAPESSKCSTVSPVSGINTRRSSGATGNSCSPLNATSGSGRFTPLNPRAKIEKQNEEGWFALSTHVS | + | 1 | NS3 | – | – | – |
